Measured values taken from US20190233498A1 (H LUNDBECK A S, published 2019).

T1: human PACAP38 (human, not fully specified; C-terminal lysine is amidated; N-terminal or C-terminal biotin in the HTRF and PC-12 cell binding assays)
T1 construct: synthetic peptide, bought; also called huPACAP (1-38)
T1 peptide: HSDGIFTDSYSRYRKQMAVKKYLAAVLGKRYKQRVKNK

T2: human PACAP27 (human, C-terminal leucine is amidated; 125I-labelled in Example 10)
T2 peptide: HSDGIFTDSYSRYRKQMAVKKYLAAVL

T3: human VIP (human)
T3 construct: also called Vasoactive Intestinal Peptide
T3 peptide: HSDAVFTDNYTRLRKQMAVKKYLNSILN


What was measured:
[1] = target: T1, human PACAP38; test: SPR, Ab immobilised
Experimental: (§1) Binding affinities of monoclonal antibodies for human PACAP were estimated using SPR on the PROTEON™ XPR36 (Bio-Rad, Hercules, Calif.). Antibody was immobilized to the surface of general amine coupling (“GLC” or “GLM”) Chips (Bio-Rad, Hercules, Calif.). A dilution series of human PACAP38 (SEQ ID NO: 1241) prepared in 1×PBST Buffer (4.3 mM Na Phosphate, 1.4 mM K Phosphate, 135 mM NaCl, 2.7 mM KCl 0.05% Polysorbate-20) purchased from Teknova (Cat# P1192, Teknova, Hollister, Calif.) and supplemented with 0.25 M arginine (from J.T. BAKER®), 0.2 mg/ml BSA (Jackson Immuno Research Labs, West Grove, Pa.), and 0.005% sodium azide (VWR International, Radnor, Pa.) with the pH adjusted to 7 was used to query the antibodies. Antigen (ranging from 1.23 nM to 100 nM) was typically run sequentially with association times of 2-4 minutes and dissociation times of 3-120 minutes grouped with the PROTEON™ Manager Software (v3.1.0.6 (Bio-Rad, Hercules, Calif.)) and fitted using a 1:1 Langmuir binding model. Surfaces were regenerated between analyte queries using 0.85% Phosphoric Acid.

[2] = target: T2, human PACAP27; test: SPR, Ab immobilised
Experimental: [The procedure below names another target; the source says it served here with some conditions changed.] as §1

[3] = target: T3, human VIP; test: SPR, Ab immobilised
Experimental: [The procedure below names another target; the source says it served here with some conditions changed.] as §1

[4] = target: T1, human PACAP38; test: cell-based or functional assay
[5] = target: T2, human PACAP27; test: cell-based or functional assay
[6] = target: T1, human PACAP38; test: cell-based or functional assay
[7] = target: T1, human PACAP38; test: cell-based or functional assay
[8] = target: T1, human PACAP38; test: HTRF binding, biotin-PACAP38
Experimental: In parallel, 10 μl of an antibody dilution series (highest final concentration of 100 nM) were incubated with 10 μl of N-terminal or C-terminal biotinylated PACAP38 (35 nM final) alone, or in combination with either PACAP27 (350 nM final) or VIP (350 nM final), i.e., 10× PACAP27 or 10×VIP, respectively, in a HTRF plate. 20 μl of Eu³⁺ cryptate labeled anti-hu Fc donor and 20 μl of d2-labeled streptavidin acceptor were added to each well and incubated for 1 hour at room temperature. Fluorescence was measured at 620 and 665 nm with a delay of 300 μsec.
EC₅₀ values, i.e. the concentration of an antibody that yields a response halfway between the baseline and the maximum value within a specified time period, were computed for each antibody based upon their binding curves and are shown in Table 1 below. […] A humanized form of antibody Ab1 was produced and is identified by an appended “.H”, i.e., Ab1.H, and it also bound PACAP38 with high affinity.

[9] = target: T1, human PACAP38; test: inhibition of 100 nM biotin-PACAP38 binding to PC-12 cells, TRF
Experimental: (§2) To identify antibodies that block PACAP38 binding to PAC1-R-expressing cells, adherent PC-12 cells (ATCC, Manassas, Va.) expressing PAC1-R were used in a Europium-based PAC1-R expressing cells binding assay.
(§3) Antibody solutions were incubated with N-terminal biotinylated PACAP38 at 10× the final concentration (100 nM or 30 nM) for 1 hr, then added to PC-12 cells that were plated 24 hrs. prior in black clear bottom 96 well plates (COSTAR™, Corning Incorporated, Corning, N.Y.) and further incubated for 1 hr at room temperature. After three washes, the cells were incubated with 20 μl Europium-labeled streptavidin (PerkinElmer, Waltham, Mass.) for 1 hr at room temperature. Cells were washed three times, then 20 μl DELFIA® Enhancement solution (PerkinElmer, Waltham, Mass.) was added to each well and incubated for 15 minutes with gentle shaking. Plates were read (Time Resolved Fluorescence (“TRF”)) on SPECTRAMAX® (Molecular Devices, Sunnyvale, Calif.) plate reader.
(§4) FIGS. 14A-14BB are representative of the inhibition curves obtained by this method (results are shown for Ab1, Ab2, Ab3, Ab4, Ab5, Ab6, Ab7, Ab8, Ab9, Ab10, Ab11, Ab12, Ab13, Ab14, Ab15, Ab16, Ab17, Ab18, Ab19, Ab1.H, Ab10.H, Ab22, Ab23, Ab3.H, Ab4.H, Ab5.H, Ab9.H, and Ab12.H, respectively) wherein the PAC1-R expressing cells were PC-12 cells.

[10] = target: T1, human PACAP38; test: inhibition of 30 nM biotin-PACAP38 binding to PC-12 cells, TRF
Experimental: as §2, §3, §4

Row | Binder | Kd [1] | koff [1] | kon [1] | Kd [2] | koff [2] | kon [2] | Kd [3] | koff [3] | IC50, 0.1 nM PACAP38-induced PAC1-R mediated cAMP increase [4] | IC50, 0.1 nM PACAP27-induced PAC1-R mediated cAMP increase [5] | IC50, 5 nM PACAP38-induced human VPAC1-R mediated cAMP increase [6] | IC50, 1 nM PACAP38-induced human VPAC2-R mediated cAMP increase [7] | EC50 [8] | IC50 [9] | kon [3] | IC50 [10]
1 | anti-PACAP antibody Ab3.H (antibody, human IgG1, kappa, N297A, V domains shown, humanized form of Ab3, full length) VH: EVQLVESGGGLVQPGGSLRLSCAASGFSFSSSDYMCWVRQAPGKGLEWIGCIDAGSSGDTYFASSAKGRFTISRDNSKNTVYLQMNSLRAEDTAVYFCARHLYGSITFAFGLWGQGTLVTVSS VL: AAQMTQSPSTLSASVGDRVTITCQASQSIGSDLAWYQQKPGKAPKLLIYDASTLASGVPSRFSGSGSGTEFTLTISSLQPDDFATYYCQGTYYSSGWYTAFGGGTKVEIKR | 0.29 nM | 0.00014 s⁻¹ | 490000 M⁻¹ s⁻¹ | 1 nM | 0.00034 s⁻¹ | 330000 M⁻¹ s⁻¹ | 100000 µM | 0.1 s⁻¹ | 1.32 nM | 1.21 nM | 0.00733 µM | 0.0642 µM | – | – | – | 0.0883 µM
2 | anti-PACAP antibody Ab1 (antibody, human IgG1, kappa, N297A, V domains shown, full-length rabbit/human chimeric antibody) VH: QSVEESGGRLVTPGTPLTLTCTVSGFSLSSAVMNWVRQAPGKGLEWIGSIVASGTTYYASWANGRFTISKTSSTTMDLKMTSPTTEDTATYFCARGGGEFFIWGPGTLVTVSS VL: DPVMTQTPSSTSAAVGGTVTISCQSSESVYSNYLSWYQQKPGQPPNFLIYQASNLASGVPSRFKGSGSGTQFTLTITDLECDDAATYYCAGGYSENIVGFGGGTEVVVKR | ≤ 0.027 nM | ≤ 1e-05 s⁻¹ | 370000 M⁻¹ s⁻¹ | ≤ 0.1 nM | ≤ 1e-05 s⁻¹ | 1e+06 M⁻¹ s⁻¹ | 0.099 µM | 0.025 s⁻¹ | 0.293 nM | 0.0729 nM | 0.000665 µM | 0.000147 µM | 0.00043 µM | 0.0127 µM | 250000 M⁻¹ s⁻¹ | –
3 | anti-PACAP antibody Ab2 (antibody, human IgG1, kappa, N297A, V domains shown, full-length rabbit/human chimeric antibody) VH: QSVEESGGRLVTPGTPLTLTCTVSGFSLSGAAMNWVRQAPGKGLEWIGVIGNSGSTYYASWAKGRFTISKTSSTTVDLKMTSPTTEDTATYFCARGGGEFFIWGQGTLVTVSS VL: AQVLTQTPSPVSAAVGGTVTINCQSSESVYKNNYLSWYQQKPGQPPKFLIYQASNLADGVPSRFKGSGSGTQFTLTISDLECDDAATYYCAGGYSTYMSGFGGGTEVVVKR | ≤ 0.044 nM | ≤ 1e-05 s⁻¹ | 230000 M⁻¹ s⁻¹ | ≤ 0.012 nM | ≤ 1e-05 s⁻¹ | 830000 M⁻¹ s⁻¹ | 0.14 µM | 0.084 s⁻¹ | 0.237 nM | 0.063 nM | 0.000688 µM | 0.000174 µM | 0.00035 µM | 0.0266 µM | 580000 M⁻¹ s⁻¹ | –
4 | anti-PACAP antibody Ab4.H (antibody, human IgG1, kappa, N297A, V domains shown, humanized form of Ab4, full length) VH: EVQLVESGGGLVQPGGSLRLSCAASGFSLSSYDMSWVRQAPGKGLEWIGIINTNDDTWYASWVKGRFTISRDNSKNTLYLQMNSLRAEDTAVYYCARISDAYVFDYAYYFTLWGQGTLVTVSS VL: DIQMTQSPSTLSASVGDRVTITCLASQNIYNSLAWYQQKPGKAPKLLIYRASTLASGVPSRFSGSGSGTEFTLTISSLQPDDFATYYCQQGAGADNIGNPFGGGTKVEIKR | 0.1 nM | 3.2e-05 s⁻¹ | 310000 M⁻¹ s⁻¹ | ≤ 0.031 nM | ≤ 1e-05 s⁻¹ | 330000 M⁻¹ s⁻¹ | 0.072 µM | 0.024 s⁻¹ | 0.307 nM | 0.294 nM | 0.0026 µM | 0.00449 µM | – | – | 330000 M⁻¹ s⁻¹ | 0.098 µM

The next lines start with the values.

Row | Kd [1] | koff [1] | kon [1] | Kd [2] | koff [2] | kon [2] | Kd [3] | koff [3] | IC50, 0.1 nM PACAP38-induced PAC1-R mediated cAMP increase [4] | IC50, 0.1 nM PACAP27-induced PAC1-R mediated cAMP increase [5] | IC50, 5 nM PACAP38-induced human VPAC1-R mediated cAMP increase [6] | IC50, 1 nM PACAP38-induced human VPAC2-R mediated cAMP increase [7] | EC50 [8] | IC50 [9] | kon [3] | IC50 [10] | Binder
5 | 0.14 nM | 0.00011 s⁻¹ | 820000 M⁻¹ s⁻¹ | 0.34 nM | 0.00032 s⁻¹ | 960000 M⁻¹ s⁻¹ | 100000 µM | 0.1 s⁻¹ | 0.987 nM | 2.84 nM | 0.00406 µM | 0.00696 µM | 0.00023 µM | 0.0333 µM | – | – | anti-PACAP antibody Ab9 (antibody, human IgG1, kappa, N297A, V domains shown, full-length rabbit/human chimeric antibody) VH: EQSGGGAEGGLVKPGGSLKLSCKASGFTISRDYWICWVRQAPGKGLEWIGCISAGGGSTDYANWVNGRFTLSRDIDQSTGCLQLNSLTDADTAMYYCAGNLEIWGQGTLVTVSS VL: AQVLTQTPSSVSAAVGGTVTINCQSSPSIYSGAFLSWFQQKPGQPPKFLIYEASKLASGVPSRFSGSGSGTQFTLTISDVQCDDAATYYCLGFYDCSSVDCHAFGGGTEVVVKR
6 | ≤ 0.029 nM | ≤ 1e-05 s⁻¹ | 350000 M⁻¹ s⁻¹ | 0.14 nM | 6e-05 s⁻¹ | 440000 M⁻¹ s⁻¹ | 0.21 µM | 0.1 s⁻¹ | 0.0393 nM | 0.049 nM | 0.000481 µM | 0.000147 µM | 0.00048 µM | 0.0203 µM | 480000 M⁻¹ s⁻¹ | – | anti-PACAP antibody Ab8 (antibody, human IgG1, kappa, N297A, V domains shown, full-length rabbit/human chimeric antibody) VH: LEQSGGGAEGGLVKPGGSLELCCKASGFSLTTSHWMCWVRQAPGKGLNWIGCISAGSGDADYATWVDAQFTLSRDIDQNTGCLQLNSLTPADTAMYYCTINFELWGQGTLVTVSS VL: AQVLTQTPSSVSAAVGGTVTINCQSSPSVYSSYLSWFQQKPGQPPKFLIYEASKLASGVPSRFSGSGSGTQFTLTISGVQCSDAATYYCLGAYDCGRTDCHAFGGGTEVVVKR
7 | 0.14 nM | 4.1e-05 s⁻¹ | 300000 M⁻¹ s⁻¹ | 0.21 nM | 8.2e-05 s⁻¹ | 390000 M⁻¹ s⁻¹ | 0.044 µM | 0.00014 s⁻¹ | 0.0512 nM | 0.38 nM | 0.000797 µM | 0.000217 µM | 0.0005 µM | 0.0078 µM | 3100 M⁻¹ s⁻¹ | – | anti-PACAP antibody Ab6 (antibody, human IgG1, kappa, N297A, V domains shown, full-length rabbit/human chimeric antibody) VH: LEQSGGGAEGGLVKPGGSLELCCKASGFSLSSTYWMCWVRQAPGKGLEWIGCIYTGSGSTDYASWVNGQFTLSRDIDQSTGCLQLNSLTVADTAMYYCTKNFDLWGPGTLVTVSS VL: AQVLTQTPSSVSAAVGGTVTINCQSSPSVYSNNYLSWFQQKPGQPPKGLIADASTLASGVPSRFKGSGSGTQFTLTISGVQCDDAAAYYCLGYYDCGSTDCHAFGGGTEVVVKR
